B1: Speckle-type POZ protein (Homo sapiens), O43791 (parent)
chain: MSRVPSPPPPAEMSSGPVAESWCYTQIKVVKFSYMWTINNFSFCREEMGEVIKSSTFSSGANDKLKWCLRVNPKGLDEESKDYLSLYLLLVSCPKSEVRAKFKFSILNAKGEETKAMESQRAYRFVQGKDWGFKKFIRRDFLLDEANGLLPDDKLTLFCEVSVVQDSVNISGQNTMNMVKVPECRLADELGGLWENSRFTDCCLCVAGQEFQAHKAILAARSPVFSAMFEHEMEESKKNRVEINDVEPEVFKEMMCFIYTGKAPNLDKMADDLLAAADKYALERLKVMCEDALCSNLSVENAAEILILADLHSADQLKTQAVDFINYHASDVLETSGWKSMVVSHPHLVAEAYRSLASAQCPFLGPPRKRLKQS

Variants of B1 are the subject of the first assay. Particulars: with mk06_human MAPK6, Q16659.
mk06_human MAPK6, Q16659, sequence (Q16659 whole entry): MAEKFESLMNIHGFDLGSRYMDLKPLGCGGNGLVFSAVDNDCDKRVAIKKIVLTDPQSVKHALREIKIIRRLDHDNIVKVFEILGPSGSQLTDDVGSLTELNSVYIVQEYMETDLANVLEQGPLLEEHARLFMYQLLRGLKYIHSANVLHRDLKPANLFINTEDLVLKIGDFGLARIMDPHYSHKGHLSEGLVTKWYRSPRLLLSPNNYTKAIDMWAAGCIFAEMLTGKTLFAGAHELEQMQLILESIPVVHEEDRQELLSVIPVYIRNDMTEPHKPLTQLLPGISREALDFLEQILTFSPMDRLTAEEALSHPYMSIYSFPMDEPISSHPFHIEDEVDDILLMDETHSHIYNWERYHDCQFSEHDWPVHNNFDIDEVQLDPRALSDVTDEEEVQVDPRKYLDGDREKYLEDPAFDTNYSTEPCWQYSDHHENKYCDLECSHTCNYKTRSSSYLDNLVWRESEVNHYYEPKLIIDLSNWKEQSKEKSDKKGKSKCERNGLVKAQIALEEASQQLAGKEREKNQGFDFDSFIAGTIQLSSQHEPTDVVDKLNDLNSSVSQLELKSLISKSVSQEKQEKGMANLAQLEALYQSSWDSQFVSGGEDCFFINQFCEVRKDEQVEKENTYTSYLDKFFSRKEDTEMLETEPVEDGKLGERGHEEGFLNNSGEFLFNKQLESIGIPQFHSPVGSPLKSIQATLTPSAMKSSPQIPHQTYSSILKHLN
For MSRVPSPPPPAEMSSGPVAESWCYTQIKVVKFSYMWTINNFSFCREEMGEVIKSSTFSSGANDKLKWCLRVNPKGLDEESKDYLSLCLLLVSCPKSEVRAKFKFSILNAKGEETKAMESQRAYRFVQGKDWGFKKFIRRDFLLDEANGLLPDDKLTLFCEVSVVQDSVNISGQNTMNMVKVPECRLADELGGLWENSRFTDCCLCVAGQEFQAHKAILAARSPVFSAMFEHEMEESKKNRVEINDVEPEVFKEMMCFIYTGKAPNLDKMADDLLAAADKYALERLKVMCEDALCSNLSVENAAEILILADLHSADQLKTQAVDFINYHASDVLETSGWKSMVVSHPHLVAEAYRSLASAQCPFLGPPRKRLKQS [Y87C], the “effect of a mutation on the interaction” value is listed as “with no effect”.

Variants of B1 are the subject of another assay. The settings on record: with sin1_human MAPKAP1, Q9BPZ7.
sin1_human MAPKAP1, Q9BPZ7, sequence (Q9BPZ7 whole entry): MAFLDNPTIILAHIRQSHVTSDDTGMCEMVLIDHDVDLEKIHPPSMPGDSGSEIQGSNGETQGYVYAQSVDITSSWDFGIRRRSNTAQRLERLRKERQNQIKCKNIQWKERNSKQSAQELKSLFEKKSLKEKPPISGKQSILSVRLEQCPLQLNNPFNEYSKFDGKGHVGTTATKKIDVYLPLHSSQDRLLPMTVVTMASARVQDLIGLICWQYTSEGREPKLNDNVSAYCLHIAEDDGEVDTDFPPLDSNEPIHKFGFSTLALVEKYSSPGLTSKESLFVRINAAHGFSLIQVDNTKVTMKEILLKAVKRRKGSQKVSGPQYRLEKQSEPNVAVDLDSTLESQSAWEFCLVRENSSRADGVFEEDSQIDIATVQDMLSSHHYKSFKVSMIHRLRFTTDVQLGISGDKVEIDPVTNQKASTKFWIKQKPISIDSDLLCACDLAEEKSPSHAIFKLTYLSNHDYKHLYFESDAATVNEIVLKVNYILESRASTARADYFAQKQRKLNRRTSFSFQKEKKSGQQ
Take MSRVPSPPPPAEMSSGPVAESWCYTQIKVVKFSYMWTINNFSFCREEMGEVIKSSTFSSGANDKLKWCLRVNPKGLDEESKDYLSLCLLLVSCPKSEVRAKFKFSILNAKGEETKAMESQRAYRFVQGKDWGFKKFIRRDFLLDEANGLLPDDKLTLFCEVSVVQDSVNISGQNTMNMVKVPECRLADELGGLWENSRFTDCCLCVAGQEFQAHKAILAARSPVFSAMFEHEMEESKKNRVEINDVEPEVFKEMMCFIYTGKAPNLDKMADDLLAAADKYALERLKVMCEDALCSNLSVENAAEILILADLHSADQLKTQAVDFINYHASDVLETSGWKSMVVSHPHLVAEAYRSLASAQCPFLGPPRKRLKQS [Y87C]: the “effect of a mutation on the interaction” value is “with no effect”.

In the next assay the parent is B1. Particulars: with mcl1_human MCL1, Q07820.
mcl1_human MCL1, Q07820, sequence (Q07820 whole entry): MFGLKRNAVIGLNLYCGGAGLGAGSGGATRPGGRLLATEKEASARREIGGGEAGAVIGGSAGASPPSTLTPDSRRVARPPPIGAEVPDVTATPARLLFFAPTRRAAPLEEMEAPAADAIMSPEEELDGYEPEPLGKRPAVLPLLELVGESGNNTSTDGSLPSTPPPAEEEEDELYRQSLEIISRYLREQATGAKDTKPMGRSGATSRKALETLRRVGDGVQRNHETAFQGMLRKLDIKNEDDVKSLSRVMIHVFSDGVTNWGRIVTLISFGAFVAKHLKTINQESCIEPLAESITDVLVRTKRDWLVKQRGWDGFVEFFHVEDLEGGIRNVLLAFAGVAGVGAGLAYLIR
In the case of MSRVPSPPPPAEMSSGPVAESWCYTQIKVVKFSYMWTINNFSFCREEMGEVIKSSTFSSGANDKLKWCLRVNPKGLDEESKDYLSLCLLLVSCPKSEVRAKFKFSILNAKGEETKAMESQRAYRFVQGKDWGFKKFIRRDFLLDEANGLLPDDKLTLFCEVSVVQDSVNISGQNTMNMVKVPECRLADELGGLWENSRFTDCCLCVAGQEFQAHKAILAARSPVFSAMFEHEMEESKKNRVEINDVEPEVFKEMMCFIYTGKAPNLDKMADDLLAAADKYALERLKVMCEDALCSNLSVENAAEILILADLHSADQLKTQAVDFINYHASDVLETSGWKSMVVSHPHLVAEAYRSLASAQCPFLGPPRKRLKQS [Y87C], the “effect of a mutation on the interaction” value is reported as “with no effect”.

In the next assay the parent is B1. The settings on record: with mdm2_human MDM2, Q00987.
mdm2_human MDM2, Q00987, sequence (Q00987 whole entry, looked up): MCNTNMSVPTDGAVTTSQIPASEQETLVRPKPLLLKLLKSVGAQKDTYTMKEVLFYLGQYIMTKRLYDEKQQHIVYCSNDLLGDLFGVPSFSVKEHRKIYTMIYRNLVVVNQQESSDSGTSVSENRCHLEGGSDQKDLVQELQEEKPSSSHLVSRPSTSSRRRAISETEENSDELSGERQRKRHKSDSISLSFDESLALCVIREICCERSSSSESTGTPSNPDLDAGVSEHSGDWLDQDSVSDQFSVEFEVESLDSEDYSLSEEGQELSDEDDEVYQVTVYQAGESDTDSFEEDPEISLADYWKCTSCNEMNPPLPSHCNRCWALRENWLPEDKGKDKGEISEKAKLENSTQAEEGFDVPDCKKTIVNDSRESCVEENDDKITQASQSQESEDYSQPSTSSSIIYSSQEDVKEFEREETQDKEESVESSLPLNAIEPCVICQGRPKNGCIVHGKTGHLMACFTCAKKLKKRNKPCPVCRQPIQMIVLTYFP
Turning to MSRVPSPPPPAEMSSGPVAESWCYTQIKVVKFSYMWTINNFSFCREEMGEVIKSSTFSSGANDKLKWCLRVNPKGLDEESKDYLSLCLLLVSCPKSEVRAKFKFSILNAKGEETKAMESQRAYRFVQGKDWGFKKFIRRDFLLDEANGLLPDDKLTLFCEVSVVQDSVNISGQNTMNMVKVPECRLADELGGLWENSRFTDCCLCVAGQEFQAHKAILAARSPVFSAMFEHEMEESKKNRVEINDVEPEVFKEMMCFIYTGKAPNLDKMADDLLAAADKYALERLKVMCEDALCSNLSVENAAEILILADLHSADQLKTQAVDFINYHASDVLETSGWKSMVVSHPHLVAEAYRSLASAQCPFLGPPRKRLKQS [Y87C], the “effect of a mutation on the interaction” value is on record as “with no effect”.

Another assay covers variants of B1. Particulars: with mitf_human MITF.
As for MSRVPSPPPPAEMSSGPVAESWCYTQIKVVKFSYMWTINNFSFCREEMGEVIKSSTFSSGANDKLKWCLRVNPKGLDEESKDYLSLCLLLVSCPKSEVRAKFKFSILNAKGEETKAMESQRAYRFVQGKDWGFKKFIRRDFLLDEANGLLPDDKLTLFCEVSVVQDSVNISGQNTMNMVKVPECRLADELGGLWENSRFTDCCLCVAGQEFQAHKAILAARSPVFSAMFEHEMEESKKNRVEINDVEPEVFKEMMCFIYTGKAPNLDKMADDLLAAADKYALERLKVMCEDALCSNLSVENAAEILILADLHSADQLKTQAVDFINYHASDVLETSGWKSMVVSHPHLVAEAYRSLASAQCPFLGPPRKRLKQS [Y87C], the “effect of a mutation on the interaction” value is given as “with no effect”.

In the next assay the parent is B1. Particulars: with mlh1_human MLH1, P40692.
mlh1_human MLH1, P40692, sequence (P40692 whole entry): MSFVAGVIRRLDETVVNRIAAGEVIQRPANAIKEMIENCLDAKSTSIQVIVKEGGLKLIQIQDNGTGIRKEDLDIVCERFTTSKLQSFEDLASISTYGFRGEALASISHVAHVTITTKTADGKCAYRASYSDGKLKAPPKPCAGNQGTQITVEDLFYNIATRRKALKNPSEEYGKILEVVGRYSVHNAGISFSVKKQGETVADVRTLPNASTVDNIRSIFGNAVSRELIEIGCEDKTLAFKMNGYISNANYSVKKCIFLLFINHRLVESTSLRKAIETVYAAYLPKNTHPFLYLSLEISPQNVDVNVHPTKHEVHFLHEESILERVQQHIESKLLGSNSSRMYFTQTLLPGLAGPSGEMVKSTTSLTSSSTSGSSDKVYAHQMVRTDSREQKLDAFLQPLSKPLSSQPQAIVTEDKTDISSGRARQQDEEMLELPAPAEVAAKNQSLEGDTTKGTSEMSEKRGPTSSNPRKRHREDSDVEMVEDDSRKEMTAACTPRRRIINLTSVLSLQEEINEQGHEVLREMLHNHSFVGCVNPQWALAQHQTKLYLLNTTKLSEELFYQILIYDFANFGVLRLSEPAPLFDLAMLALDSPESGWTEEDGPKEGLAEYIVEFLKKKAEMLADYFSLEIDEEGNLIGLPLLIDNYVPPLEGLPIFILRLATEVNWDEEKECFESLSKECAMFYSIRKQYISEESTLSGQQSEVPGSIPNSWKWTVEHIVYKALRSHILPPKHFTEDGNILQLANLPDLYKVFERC
Regarding MSRVPSPPPPAEMSSGPVAESWCYTQIKVVKFSYMWTINNFSFCREEMGEVIKSSTFSSGANDKLKWCLRVNPKGLDEESKDYLSLCLLLVSCPKSEVRAKFKFSILNAKGEETKAMESQRAYRFVQGKDWGFKKFIRRDFLLDEANGLLPDDKLTLFCEVSVVQDSVNISGQNTMNMVKVPECRLADELGGLWENSRFTDCCLCVAGQEFQAHKAILAARSPVFSAMFEHEMEESKKNRVEINDVEPEVFKEMMCFIYTGKAPNLDKMADDLLAAADKYALERLKVMCEDALCSNLSVENAAEILILADLHSADQLKTQAVDFINYHASDVLETSGWKSMVVSHPHLVAEAYRSLASAQCPFLGPPRKRLKQS [Y87C], the “effect of a mutation on the interaction” value is reported as “with no effect”.

The variants in another assay derive from B1. Particulars: with mtor_human MTOR.
On to MSRVPSPPPPAEMSSGPVAESWCYTQIKVVKFSYMWTINNFSFCREEMGEVIKSSTFSSGANDKLKWCLRVNPKGLDEESKDYLSLCLLLVSCPKSEVRAKFKFSILNAKGEETKAMESQRAYRFVQGKDWGFKKFIRRDFLLDEANGLLPDDKLTLFCEVSVVQDSVNISGQNTMNMVKVPECRLADELGGLWENSRFTDCCLCVAGQEFQAHKAILAARSPVFSAMFEHEMEESKKNRVEINDVEPEVFKEMMCFIYTGKAPNLDKMADDLLAAADKYALERLKVMCEDALCSNLSVENAAEILILADLHSADQLKTQAVDFINYHASDVLETSGWKSMVVSHPHLVAEAYRSLASAQCPFLGPPRKRLKQS [Y87C], for which the “effect of a mutation on the interaction” value is given as “with no effect”.

Variants of B1 are the subject of a further assay. Particulars: with mybb_human MYBL2, P10244.
mybb_human MYBL2, P10244, sequence (P10244 whole entry): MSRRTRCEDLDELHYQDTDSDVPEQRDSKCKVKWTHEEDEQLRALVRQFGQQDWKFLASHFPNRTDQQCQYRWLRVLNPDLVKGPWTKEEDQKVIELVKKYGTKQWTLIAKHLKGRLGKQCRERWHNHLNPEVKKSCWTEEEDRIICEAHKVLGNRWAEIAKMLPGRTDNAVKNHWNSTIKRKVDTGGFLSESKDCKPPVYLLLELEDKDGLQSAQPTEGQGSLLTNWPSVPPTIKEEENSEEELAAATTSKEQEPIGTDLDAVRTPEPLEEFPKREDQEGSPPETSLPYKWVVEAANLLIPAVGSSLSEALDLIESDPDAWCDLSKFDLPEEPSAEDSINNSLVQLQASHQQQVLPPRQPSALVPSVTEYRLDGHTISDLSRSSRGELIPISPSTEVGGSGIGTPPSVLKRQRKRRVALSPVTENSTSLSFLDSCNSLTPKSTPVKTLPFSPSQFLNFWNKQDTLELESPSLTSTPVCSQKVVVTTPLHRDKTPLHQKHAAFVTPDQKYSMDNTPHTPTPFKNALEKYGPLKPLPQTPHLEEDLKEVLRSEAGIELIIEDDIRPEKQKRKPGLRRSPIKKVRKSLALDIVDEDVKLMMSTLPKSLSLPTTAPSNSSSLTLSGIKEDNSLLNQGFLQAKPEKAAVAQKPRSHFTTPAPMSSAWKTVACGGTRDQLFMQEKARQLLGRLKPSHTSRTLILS
For the variant MSRVPSPPPPAEMSSGPVAESWCYTQIKVVKFSYMWTINNFSFCREEMGEVIKSSTFSSGANDKLKWCLRVNPKGLDEESKDYLSLCLLLVSCPKSEVRAKFKFSILNAKGEETKAMESQRAYRFVQGKDWGFKKFIRRDFLLDEANGLLPDDKLTLFCEVSVVQDSVNISGQNTMNMVKVPECRLADELGGLWENSRFTDCCLCVAGQEFQAHKAILAARSPVFSAMFEHEMEESKKNRVEINDVEPEVFKEMMCFIYTGKAPNLDKMADDLLAAADKYALERLKVMCEDALCSNLSVENAAEILILADLHSADQLKTQAVDFINYHASDVLETSGWKSMVVSHPHLVAEAYRSLASAQCPFLGPPRKRLKQS [Y87C], the “effect of a mutation on the interaction” value is reported as “with no effect”.

The variants in another assay derive from B1. The settings on record: with myc_human MYC.
MSRVPSPPPPAEMSSGPVAESWCYTQIKVVKFSYMWTINNFSFCREEMGEVIKSSTFSSGANDKLKWCLRVNPKGLDEESKDYLSLCLLLVSCPKSEVRAKFKFSILNAKGEETKAMESQRAYRFVQGKDWGFKKFIRRDFLLDEANGLLPDDKLTLFCEVSVVQDSVNISGQNTMNMVKVPECRLADELGGLWENSRFTDCCLCVAGQEFQAHKAILAARSPVFSAMFEHEMEESKKNRVEINDVEPEVFKEMMCFIYTGKAPNLDKMADDLLAAADKYALERLKVMCEDALCSNLSVENAAEILILADLHSADQLKTQAVDFINYHASDVLETSGWKSMVVSHPHLVAEAYRSLASAQCPFLGPPRKRLKQS [Y87C]: the “effect of a mutation on the interaction” value was “with no effect”.

The variants in the next assay derive from B1. The settings on record: with mycn_human MYCN.
On to MSRVPSPPPPAEMSSGPVAESWCYTQIKVVKFSYMWTINNFSFCREEMGEVIKSSTFSSGANDKLKWCLRVNPKGLDEESKDYLSLCLLLVSCPKSEVRAKFKFSILNAKGEETKAMESQRAYRFVQGKDWGFKKFIRRDFLLDEANGLLPDDKLTLFCEVSVVQDSVNISGQNTMNMVKVPECRLADELGGLWENSRFTDCCLCVAGQEFQAHKAILAARSPVFSAMFEHEMEESKKNRVEINDVEPEVFKEMMCFIYTGKAPNLDKMADDLLAAADKYALERLKVMCEDALCSNLSVENAAEILILADLHSADQLKTQAVDFINYHASDVLETSGWKSMVVSHPHLVAEAYRSLASAQCPFLGPPRKRLKQS [Y87C], for which the “effect of a mutation on the interaction” value was “with no effect”.

The next assay covers variants of B1. The settings on record: with ncoa3_human NCOA3, Q9Y6Q9.
ncoa3_human NCOA3, Q9Y6Q9, sequence (Q9Y6Q9 whole entry, looked up): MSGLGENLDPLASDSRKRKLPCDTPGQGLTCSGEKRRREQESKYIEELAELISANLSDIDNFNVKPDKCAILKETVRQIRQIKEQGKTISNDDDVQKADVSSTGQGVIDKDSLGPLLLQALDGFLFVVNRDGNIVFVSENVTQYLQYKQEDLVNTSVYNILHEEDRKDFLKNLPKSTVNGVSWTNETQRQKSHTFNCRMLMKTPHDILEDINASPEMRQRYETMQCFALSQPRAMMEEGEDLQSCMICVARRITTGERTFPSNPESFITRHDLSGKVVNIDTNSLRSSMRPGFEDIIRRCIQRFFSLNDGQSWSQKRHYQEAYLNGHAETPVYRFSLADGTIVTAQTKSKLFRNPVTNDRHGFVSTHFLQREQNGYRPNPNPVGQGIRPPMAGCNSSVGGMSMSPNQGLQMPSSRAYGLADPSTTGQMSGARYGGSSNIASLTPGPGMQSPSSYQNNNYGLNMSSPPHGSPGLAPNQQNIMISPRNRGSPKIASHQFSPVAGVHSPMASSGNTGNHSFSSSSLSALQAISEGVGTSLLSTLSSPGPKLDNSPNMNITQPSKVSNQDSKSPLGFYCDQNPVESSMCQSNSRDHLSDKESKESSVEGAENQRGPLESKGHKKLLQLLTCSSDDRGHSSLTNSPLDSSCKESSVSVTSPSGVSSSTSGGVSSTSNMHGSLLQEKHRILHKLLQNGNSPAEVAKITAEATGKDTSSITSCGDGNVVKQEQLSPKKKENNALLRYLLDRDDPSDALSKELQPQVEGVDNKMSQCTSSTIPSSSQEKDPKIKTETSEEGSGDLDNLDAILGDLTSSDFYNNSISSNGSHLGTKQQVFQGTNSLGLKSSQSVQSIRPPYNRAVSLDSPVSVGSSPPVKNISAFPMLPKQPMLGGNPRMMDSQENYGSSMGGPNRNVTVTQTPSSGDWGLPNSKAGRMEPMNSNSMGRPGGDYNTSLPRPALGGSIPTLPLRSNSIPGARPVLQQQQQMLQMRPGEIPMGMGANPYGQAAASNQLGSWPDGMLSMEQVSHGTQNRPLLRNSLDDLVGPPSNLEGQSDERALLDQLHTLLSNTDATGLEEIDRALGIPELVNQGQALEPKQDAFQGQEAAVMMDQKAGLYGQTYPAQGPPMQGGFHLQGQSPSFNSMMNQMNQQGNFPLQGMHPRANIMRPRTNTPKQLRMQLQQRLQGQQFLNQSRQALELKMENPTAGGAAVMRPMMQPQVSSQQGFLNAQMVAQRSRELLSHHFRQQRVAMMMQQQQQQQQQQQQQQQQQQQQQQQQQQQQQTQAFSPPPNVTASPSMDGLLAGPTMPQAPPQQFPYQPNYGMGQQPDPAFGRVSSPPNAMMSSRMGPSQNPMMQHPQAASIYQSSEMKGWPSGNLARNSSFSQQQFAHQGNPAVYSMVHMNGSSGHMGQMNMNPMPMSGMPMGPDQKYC
For the variant MSRVPSPPPPAEMSSGPVAESWCYTQIKVVKFSYMWTINNFSFCREEMGEVIKSSTFSSGANDKLKWCLRVNPKGLDEESKDYLSLCLLLVSCPKSEVRAKFKFSILNAKGEETKAMESQRAYRFVQGKDWGFKKFIRRDFLLDEANGLLPDDKLTLFCEVSVVQDSVNISGQNTMNMVKVPECRLADELGGLWENSRFTDCCLCVAGQEFQAHKAILAARSPVFSAMFEHEMEESKKNRVEINDVEPEVFKEMMCFIYTGKAPNLDKMADDLLAAADKYALERLKVMCEDALCSNLSVENAAEILILADLHSADQLKTQAVDFINYHASDVLETSGWKSMVVSHPHLVAEAYRSLASAQCPFLGPPRKRLKQS [Y87C], the “effect of a mutation on the interaction” value is recorded as “with no effect”.

Variants of B1 are the subject of the next assay. The settings on record: with merl_human NF2, P35240.
As to MSRVPSPPPPAEMSSGPVAESWCYTQIKVVKFSYMWTINNFSFCREEMGEVIKSSTFSSGANDKLKWCLRVNPKGLDEESKDYLSLCLLLVSCPKSEVRAKFKFSILNAKGEETKAMESQRAYRFVQGKDWGFKKFIRRDFLLDEANGLLPDDKLTLFCEVSVVQDSVNISGQNTMNMVKVPECRLADELGGLWENSRFTDCCLCVAGQEFQAHKAILAARSPVFSAMFEHEMEESKKNRVEINDVEPEVFKEMMCFIYTGKAPNLDKMADDLLAAADKYALERLKVMCEDALCSNLSVENAAEILILADLHSADQLKTQAVDFINYHASDVLETSGWKSMVVSHPHLVAEAYRSLASAQCPFLGPPRKRLKQS [Y87C], the “effect of a mutation on the interaction” value was “with no effect”.

In the next assay the parent is B1. The settings on record: with nfic_human NFIC.
Take MSRVPSPPPPAEMSSGPVAESWCYTQIKVVKFSYMWTINNFSFCREEMGEVIKSSTFSSGANDKLKWCLRVNPKGLDEESKDYLSLCLLLVSCPKSEVRAKFKFSILNAKGEETKAMESQRAYRFVQGKDWGFKKFIRRDFLLDEANGLLPDDKLTLFCEVSVVQDSVNISGQNTMNMVKVPECRLADELGGLWENSRFTDCCLCVAGQEFQAHKAILAARSPVFSAMFEHEMEESKKNRVEINDVEPEVFKEMMCFIYTGKAPNLDKMADDLLAAADKYALERLKVMCEDALCSNLSVENAAEILILADLHSADQLKTQAVDFINYHASDVLETSGWKSMVVSHPHLVAEAYRSLASAQCPFLGPPRKRLKQS [Y87C]: the “effect of a mutation on the interaction” value is recorded as “with no effect”.

The variants in another assay derive from B1. The settings on record: with ikba_human NFKBIA.
Regarding MSRVPSPPPPAEMSSGPVAESWCYTQIKVVKFSYMWTINNFSFCREEMGEVIKSSTFSSGANDKLKWCLRVNPKGLDEESKDYLSLCLLLVSCPKSEVRAKFKFSILNAKGEETKAMESQRAYRFVQGKDWGFKKFIRRDFLLDEANGLLPDDKLTLFCEVSVVQDSVNISGQNTMNMVKVPECRLADELGGLWENSRFTDCCLCVAGQEFQAHKAILAARSPVFSAMFEHEMEESKKNRVEINDVEPEVFKEMMCFIYTGKAPNLDKMADDLLAAADKYALERLKVMCEDALCSNLSVENAAEILILADLHSADQLKTQAVDFINYHASDVLETSGWKSMVVSHPHLVAEAYRSLASAQCPFLGPPRKRLKQS [Y87C], the “effect of a mutation on the interaction” value is reported as “with no effect”.

In a further assay the parent is B1. The settings on record: with notc2_human NOTCH2, Q04721.
Turning to MSRVPSPPPPAEMSSGPVAESWCYTQIKVVKFSYMWTINNFSFCREEMGEVIKSSTFSSGANDKLKWCLRVNPKGLDEESKDYLSLCLLLVSCPKSEVRAKFKFSILNAKGEETKAMESQRAYRFVQGKDWGFKKFIRRDFLLDEANGLLPDDKLTLFCEVSVVQDSVNISGQNTMNMVKVPECRLADELGGLWENSRFTDCCLCVAGQEFQAHKAILAARSPVFSAMFEHEMEESKKNRVEINDVEPEVFKEMMCFIYTGKAPNLDKMADDLLAAADKYALERLKVMCEDALCSNLSVENAAEILILADLHSADQLKTQAVDFINYHASDVLETSGWKSMVVSHPHLVAEAYRSLASAQCPFLGPPRKRLKQS [Y87C], the “effect of a mutation on the interaction” value is reported as “with no effect”.

These data come from IntAct's records for PubMed 35512704.
